One may read the stoichiometry N as the number of molecules, sites or subunits per partner or assembly. As a reminder, the Kd is the equilibrium constant for the complex coming apart. Lower therefore signals a tighter complex.

Substitutions are numbered along the chain they refer to.

The values below come from paper PMC4150777 (Nucleic Acids Research, 2014).

The labels stand for the following.
B1: Shewanella oneidensis MR-1 HipAso (SO0706), recombinant wild type (enzyme)
chain: MSTAKTLTLEMHLGDLMIGELSFDATADTFAVHYTKDWQQSGFPLSPTIPLDGTGTSNQISMFLVNLLPENKGLDYLIESLGVSKGNTFALIRAIGLDTAGAIAFVPKGALLPETQLRPIKAEEVIQRIEDPTMWPMEIWDGKPRLSVAGVQPKLNLFYNGKEFAFAEGTLSSTHIVKFEKYHHLVINEFITMRLAKVLGMNVANVDIVHFGRYKALCVERFDRRNIPGEQRVLRRHIVDSCQALGFSVSKKYERNFGTGRDVKDIREGVSFNRLFSLAAKCRNPVAAKQDMLQWALFNLLTGNADAHGKNYSFFMTPSGMEPTPWYDLVSVDMYEDFEQQLAMAIDDEFDPNSIYAYQLAAFMDGLGLPRNLLISNLTRIARRIPQAIAEVILMLPPLDEDEASFVAHYKTQLLARCERYLGFVDEVRDVEV
B2: Shewanella oneidensis MR-1 HipBso (SO0705) (natural protein, UniProt Q8EIX4 1-78, looked up)
chain: MASPLNQQSLGLLIKERRKSAALTQDVAAMLCGVTKKTLIRVEKGEDVYISTVFKILDGLGIDIVSAQTSDTETNGWY
B3: hipBAso operator DNA (26 bp) (dsDNA)
DNA 1: ATTAGGTGTACTTATCTACACTTTTT
DNA 2: AAAAAGTGTAGATAAGTACACCTAAT

The target of data set [1] is B2. Nature of the data set: ITC. Background: Isothermal titration calorimetry measures the heat released or taken up as one component is titrated into another.
Data set [2] deals with the molecule itself. Nature of the data set: SEC. (SEC sorts molecules by how far they enter the pores of the column.)
Data set [3] has as its target T1, HipAso D306Q active site mutant (non-phosphorylated) (Shewanella oneidensis MR-1, UniProt Q8EIX3 1-433, D306Q).
T1 sequence: B1 chain with D306Q
The data set is described as follows: ITC.

For data set [4], the target named is T2, HipBso (Shewanella oneidensis MR-1, UniProt PDB:4PU3_2 1-118).
T2 sequence: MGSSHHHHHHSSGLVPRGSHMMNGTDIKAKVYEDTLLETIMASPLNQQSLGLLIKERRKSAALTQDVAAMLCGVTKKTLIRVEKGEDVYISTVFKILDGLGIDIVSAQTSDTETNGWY
Nature of the data set: ITC.

Consider B1, for which, in data set [1], the “stoichiometry N” value was determined as 2 HipAso per HipBso dimer.

On to B2, for which the “stoichiometry N” value in data set [2] amounted to 2. Moreover, the dissociation constant Kd in data set [3] was 300 nM.

In data set [4], B3 gave a Kd of 290 nM.
